Test results: US11793905B2, “Dressing” (University of Birmingham, priority 2015, dated 2023)

System: MFs
Experiment: Sirius red assay of collagen deposition from MFs under decorin-containing gellan membranes
Assay type: cell-based
Conditions: MFs with TGF-β1 added to produce excess collagen; 12 day period; Sirius red dye read at 550 nm; compared to non-treated samples
Method: FIG. 4—MFs were cultured in 6-well plates and left to attach overnight. After overnight attachment TGF-β1 was added to the cells to produces excess collagen. Decorin containing membranes were placed on top of the cultures and collagen production was observed using the Sirius Red assay over time.
FIG. 5: For quantifying the amount of Sirius red dye bound to collagen in the cultures the Sirius red was dissolved with 0.1N sodium hydroxide and left on a shaker for 30 min at room temperature. The dissolved dye was measured colourimetrically using a plate reader at 550 nm

B1: decorin (protein, UniProt P07585 31-359, looked up)
Decorin: DEASGIGPEVPDDRDFEPSLGPVCPFRCQCHLRVVQCSDLGLDKVPKDLPPDTTLLDLQNNKITEIKDGDFKNLKNLHALILVNNKISKVSPGAFTPLVKLERLYLSKNQLKELPEKMPKTLQELRAHENEITKVRKVTFNGLNQMIVIELGTNPLKSSGIENGAFQGMKKLSYIRIADTNITSIPQGLPPSLTELHLDGNKISRVDAASLKGLNNLAKLGLSFNSISAVDNGSLANTPHLRELHLDNNKLTRVPGGLAEHKYIQVVYLHNNNISVVGSSDFCPPGHNTKKASYSGVSLFSNPVQYWEIQPSTFRCVYVRSAIQLGNYK
notes: secreted 45 kDA proteoglycan with a core protein comprising primarily leucine-rich repeats; antifibrotic agent
- amount of collagen deposited: significantly reduces the amount of collagen deposited
